Experimental data taken from the supplement of paper PMC9233669.
Variants at the floor of the assay were thinned out.

How the values were obtained:
biotinyl-Trp-oxazolone = experiment: self-aminoacylation, catalytic enhancement (BWO) (fold over background); higher = more active; k-Seq, kA / k0A0; sequences stand for … in GGGAAUGGAUCCACAUCUACGAAUUC…UUCACUGCAGACUUGACGAAGCUG
In short: (§1)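 Mutagenized RNA pools with a 21-nt variable region (0.43 μM) were reacted with each biotinyl-aminoacyl-oxazolone at 2–1250 μM for 90 minutes at room temperature, in 50 μL HEPES/NaCl/KCl/MgCl2/CaCl2 buffer containing 5% acetonitrile at pH 6.9–7.0. RNA captured on streptavidin was quantified by triplicate qPCR and by Illumina sequencing. The fraction reacted for each sequence was fit to a pseudo-first-order model with bootstrapping, and catalytic enhancement is the median kA divided by the uncatalyzed rate, taken as the low-activity peak of a bimodal Gaussian fit.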

biotinyl-Phe-oxazolone = experiment: self-aminoacylation, catalytic enhancement (BFO) (fold over background); higher = more active; k-Seq, kA / k0A0; sequences stand for … in GGGAAUGGAUCCACAUCUACGAAUUC…UUCACUGCAGACUUGACGAAGCUG
In short: as §1

| Sequence | self-aminoacylation (biotinyl-Trp-oxazolone) | self-aminoacylation (biotinyl-Phe-oxazolone) |
| --- | --- | --- |
| AAGUCUACUAAUAGUCGCAAG [Fam3.1 aminoacylation ribozyme variant] | 2.11 | 3.17 |
| AAGUGUGCUAAUAGUCGAAAG [Fam3.1 aminoacylation ribozyme variant] | 4.55 | 11.5 |
| AAGUUUCCUAAUAGUCGCACG [Fam3.1 aminoacylation ribozyme variant] | 2.23 | 2.96 |
| AAGUUUGCUAAUAGCCGCAAG [Fam3.1 aminoacylation ribozyme variant] | 2.2 | 6.96 |
| AAGUUUGCUAAUGGUCGCAAA [Fam3.1 aminoacylation ribozyme variant] | 2.87 | 2.48 |
| AAGUUUGCUAGUAGUCGCACG [Fam3.1 aminoacylation ribozyme variant] | 2.21 | 3.09 |
| AAGUUUUCUAUUAGUCGCAAG [Fam3.1 aminoacylation ribozyme variant] | 2.07 | 2.22 |
| ACUCACUUCAAGCAAUCGGUC [Fam1B.1 aminoacylation ribozyme variant] | 5.36 | 9.3 |
| AUACUUCAAACAAUCGGUCUC [Fam1A.1 aminoacylation ribozyme variant] | 7.89 | 13.5 |
| AUUACCAUGGUCAUCGAGGGA [Fam2.1 aminoacylation ribozyme variant] | 2.58 | 2.21 |
| AUUCACCUAGUUCAUCGGGUA [Fam2.2 aminoacylation ribozyme variant] | 2.37 | 5.42 |
| CAACGUCAAACAAUCGGUCUG [Fam1A.1 aminoacylation ribozyme variant] | 2.6 | 3.29 |
| CAACUUCAAACAAUCGGUCAG [Fam1A.1 aminoacylation ribozyme variant] | 11.9 | 19.5 |
| CAACUUCAAACAAUCUGUCUG [Fam1A.1 aminoacylation ribozyme variant] | 2.14 | 4.35 |
| CAACUUCAAACGAUCGGUCUG [Fam1A.1 aminoacylation ribozyme variant] | 2.65 | 2.25 |
| CAAGACUUCAAGCAAUCGGUC [Fam1B.1 aminoacylation ribozyme variant] | 9.73 | 15.3 |
| CCACACCUCAAUCAAUCGGUC [Fam1B.1 aminoacylation ribozyme variant] | 2.88 | 3.88 |
| CCACACUCCAACCAAUCGGUC [Fam1B.1 aminoacylation ribozyme variant] | 2.18 | 3.55 |
| CCACACUUCAACCAAUCGGUU [Fam1B.1 aminoacylation ribozyme variant] | 11.9 | 12.3 |
| CCACACUUCAACCGAUCGGUC [Fam1B.1 aminoacylation ribozyme variant] | 5.96 | 3.75 |
| CCACACUUCAAGUAAUCGGUC [Fam1B.1 aminoacylation ribozyme variant] | 9.7 | 16.4 |

| Sequence | self-aminoacylation (biotinyl-Trp-oxazolone) | self-aminoacylation (biotinyl-Phe-oxazolone) |
| --- | --- | --- |
| CCACCCUUCAAUCAAUCGGUC [Fam1B.1 aminoacylation ribozyme variant] | 20.9 | 28.6 |
| CCACGCCUCAAGCAAUCGGUC [Fam1B.1 aminoacylation ribozyme variant] | 6.73 | 10.4 |
| CCACUCUUCAAGGAAUCGGUC [Fam1B.1 aminoacylation ribozyme variant] | 3.24 | 3 |
| CCACUUCAAAAAAUCGGUCUG [Fam1A.1 aminoacylation ribozyme variant] | 12.1 | 15.2 |
| CCACUUCAAACAUUCGGUCUG [Fam1A.1 aminoacylation ribozyme variant] | 2.73 | 5.58 |
| CCACUUCAAACGAUCGGUCUG [Fam1A.1 aminoacylation ribozyme variant] | 2.62 | 3.03 |
| CCACUUCAAAUAAUCGGUCUG [Fam1A.1 aminoacylation ribozyme variant] | 15.2 | 17.9 |
| CCAGACUUCAAGGAAUCGGUC [Fam1B.1 aminoacylation ribozyme variant] | 5.9 | 6.35 |
| CCAUACUUCAAACAAUCGGUC [Fam1B.1 aminoacylation ribozyme variant] | 30.3 | 66.4 |
| CCCCACUUAAAGCAAUCGGUC [Fam1B.1 aminoacylation ribozyme variant] | 2.05 | 2.09 |
| CCCCACUUCUAGCAAUCGGUC [Fam1B.1 aminoacylation ribozyme variant] | 2.23 | 2.55 |
| CCCCACUUUAAGCAAUCGGUC [Fam1B.1 aminoacylation ribozyme variant] | 2.1 | 2.4 |
| CCUCUCUUCAAGCAAUCGGUC [Fam1B.1 aminoacylation ribozyme variant] | 20 | 36.3 |
| CGACCCUUCAAGCAAUCGGUC [Fam1B.1 aminoacylation ribozyme variant] | 3.13 | 3.2 |
| CGACUUCAAACAAUCGGUCUA [Fam1A.1 aminoacylation ribozyme variant] | 6.02 | 12.7 |
| CUACACUUCAAGCAAUCGGUC [Fam1B.1 aminoacylation ribozyme variant] | 22.8 | 54.5 |
| CUACACUUCAAUCAAUCGGUC [Fam1B.1 aminoacylation ribozyme variant] | 18.5 | 37.4 |
| CUACAGUUCAAGCAAUCGGUC [Fam1B.1 aminoacylation ribozyme variant] | 2.96 | 4.84 |
| CUACUUACAACAAUCGGUCUG [Fam1A.1 aminoacylation ribozyme variant] | 2.34 | 3.29 |
| CUACUUCAAACAAUCGGUCAC [Fam1A.1 aminoacylation ribozyme variant] | 8.51 | 23.1 |
| CUACUUCAAACAAUCGGUCAG [Fam1A.1 aminoacylation ribozyme variant] | 7.09 | 16.7 |

| Sequence | self-aminoacylation (biotinyl-Trp-oxazolone) | self-aminoacylation (biotinyl-Phe-oxazolone) |
| --- | --- | --- |
| CUACUUCAAACAAUCGGUCGU [Fam1A.1 aminoacylation ribozyme variant] | 10.3 | 16.3 |
| CUACUUCAAACAAUCGGUCUU [Fam1A.1 aminoacylation ribozyme variant] | 15.3 | 31.2 |
| CUACUUCAAACAAUCGGUUUC [Fam1A.1 aminoacylation ribozyme variant] | 2.18 | 4.72 |
| CUACUUCAAACAAUCUCUCUG [Fam1A.1 aminoacylation ribozyme variant] | 4.21 | 10.1 |
| CUACUUCAAAUAAUCGGUUUG [Fam1A.1 aminoacylation ribozyme variant] | 8.58 | 16 |
| CUACUUCAACCAAUCGGUUUG [Fam1A.1 aminoacylation ribozyme variant] | 10.8 | 17 |
| CUAGUUCAAACAAUCGGUCUG [Fam1A.1 aminoacylation ribozyme variant] | 6.47 | 11 |
| CUAGUUCAAACAAUCGGUUUG [Fam1A.1 aminoacylation ribozyme variant] | 3.41 | 4.59 |
| CUAGUUCAAUCAAUCGGUCUG [Fam1A.1 aminoacylation ribozyme variant] | 2.63 | 3.97 |
| CUAGUUCCAACAAUCGGUCUG [Fam1A.1 aminoacylation ribozyme variant] | 9.72 | 9.79 |
| CUCCCUCAAACAAUCGGUCUG [Fam1A.1 aminoacylation ribozyme variant] | 3.48 | 3.26 |
| CUCCUUCAAAGAAUCGGUCUG [Fam1A.1 aminoacylation ribozyme variant] | 5.66 | 6.59 |
| CUGGUUCAAACAAUCGGUCUG [Fam1A.1 aminoacylation ribozyme variant] | 9.11 | 14 |
| CUUCUUCAAACAAUCGGUCUA [Fam1A.1 aminoacylation ribozyme variant] | 4.8 | 11.4 |
| GCACACUUCAAGCAAUCAGUC [Fam1B.1 aminoacylation ribozyme variant] | 4.94 | 9.69 |
| GCACACUUCAAGCAAUCGGUC [Fam1B.1 aminoacylation ribozyme variant] | 19.8 | 32.3 |
| GCACAUUUCAAGCAAUCGGUC [Fam1B.1 aminoacylation ribozyme variant] | 3.16 | 3.69 |
| GUACUUCAAACAAUCGGUCCG [Fam1A.1 aminoacylation ribozyme variant] | 3.6 | 6.11 |
| UAGUUUGCUAAUAGUCGGAAG [Fam3.1 aminoacylation ribozyme variant] | 2.37 | 6.04 |
| UAGUUUGCUAAUAGUCGUAAG [Fam3.1 aminoacylation ribozyme variant] | 4.18 | 17.9 |
